The text below walks through data of article PMC11869524, “A leucine responsive small RNA AbcR200 regulates expression of the lactate utilization (lut) operon in Acinetobacter baumannii DS002” (The Journal of Biological Chemistry, 2025).

What is called stoichiometry N is the number of molecules, sites or subunits per partner or assembly.

Values joined by “and” are separate entries in the source; they are usually repeats but may differ in a detail not shown here. Equal entries are not always repeated.

Data set [1] concerns the molecule itself. In words: cross-linking; 23 uM purified AbLrp^C6His dialyzed against 20 mM Hepes, 150 mM NaCl, pH 8.0; DSS (3 mM), 30 min at room temperature, quenched with Tris-Cl; SDS-PAGE (12.5%) and Western blot with anti-His antibodies; with leucine (5 mM), with or without DNA (300 ng) containing the Lrp binding site. (In general: A western blot detects proteins with antibodies after separation by electrophoresis.)

Data set [2] deals with the molecule itself. In words: cross-linking; 23 uM purified AbLrp^C6His dialyzed against 20 mM Hepes, 150 mM NaCl, pH 8.0; DSS (3 mM), 30 min at room temperature, quenched with Tris-Cl; SDS-PAGE (12.5%) and Western blot with anti-His antibodies; without leucine, with or without DNA (300 ng) containing the Lrp binding site.

B1: A. baumannii DS002 Lrp protein (AbLrp^C6His), leucine responsive regulatory protein (natural protein, Acinetobacter baumannii DS002, UniProt V5VJ98 1-155, looked up)
chain: MRPLDRIDRMILDILQREGRIAISELASRVNLSTTPCSERVKRLERDGIIMGYYARLNPAYVDRNLLVFLEIKLSAKSGDVFDQVARDLVEIPEVLECHLISGEFDYLVKARLKEMSAYRRLLGDLLKKLPASASSHSYVVMEEVKETLYLDVSK
notes: Leucine responsive regulatory protein (Lrp) of Acinetobacter baumannii DS002; lrp gene amplified from chromosomal DNA with primers HS36 FP/HS36 RP and cloned in pET23b as NdeI and XhoI fragment (pHS10); not shown: His6, C-terminal, kept
Consider B1, for which the “stoichiometry N” value is 2 and 3 in data set [1]; 4 in data set [2].
